The record followed here is the supplement of paper PMC10724198.

± gives the standard deviation of the averaged measurements.

What all share (test): protein stability index of tFT-peptide fusion (C-terminal peptide) (PSI (0-1 scale)); higher = more stable (slower turnover)
Series [1] has as its system Saccharomyces cerevisiae. The conditions noted are these: temperature: 30 C. The method, then: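 MPS profiling in S. cerevisiae of the yeast C-terminome library: the last 12 aa of each annotated ORF are fused to the C-terminus of a sfGFP-mCherry timer, after a GGGS linker. Cells are FACS-sorted into 8 mCherry/sfGFP bins and deep-sequenced. PSI runs from 0 (unstable) to 1 (stable); wild type and das1Δ backgrounds, two technical replicates each.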

Series [2] relates to Saccharomyces cerevisiae. Conditions: genetic background: wild type; temperature: 30 C.
For series [3], the system named is Saccharomyces cerevisiae. The method, then:
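MPS profiling in S. cerevisiae of the tFT-X12 degron library: putative degron peptides plus stable controls, 12 aa, fused to the C-terminus of a sfGFP-mCherry timer. Cells are FACS-sorted into 8 mCherry/sfGFP bins and deep-sequenced. PSI runs from 0 (unstable) to 1 (stable). Backgrounds are wild type, das1Δ and doa10Δ at 30 °C, and wild type, das1Δ, cdc34-1 and cdc53-1 at 37 °C; 2-3 technical replicates each.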

The mark [4] stands for this setting: genetic background: das1 deletion.
Setting [5] is: genetic background: cdc34-1, temperature: 37 C.
[6] abbreviates: genetic background: cdc53-1, temperature: 37 C.
Where [7] appears, read: genetic background: das1 deletion, temperature: 30 C.
The mark [8] stands for this setting: genetic background: das1 deletion, temperature: 37 C.
[9] abbreviates: genetic background: doa10 deletion, temperature: 30 C.
The mark [10] stands for this setting: genetic background: wild type, temperature: 30 C.
The mark [11] stands for this setting: genetic background: wild type, temperature: 37 C.

With AAAIAGAAALLL [DAN1 C-terminal 12 aa], the protein stability index in series [1] (setting [4]) is 0.712 ± 0.013; in series [1] (genetic background: wild type), 0.732 ± 0.035.
On the same counts, the results for AAPQDINQQPNQ [LDS1 C-terminal 12 aa] are 0.727 ± 0.028 and 0.671 ± 0.0087.
For the sequence AAQLSSILPKYM [YLR140W C-terminal 12 aa], the figures for the protein stability index in series [1] (setting [4]) and in series [1] (genetic background: wild type) were 0.674 ± 0.056 and 0.566 ± 0.063, respectively.
Regarding AAVAKQKVSDSK [DHR2 C-terminal 12 aa], the protein stability index in series [1] (setting [4]) came to 0.664 ± 0.024; in series [1] (genetic background: wild type) it was 0.654 ± 0.024.
On the same counts, the results for AAVRQRREVNKK [ARO4 C-terminal 12 aa] are 0.6893 ± 0.006 and 0.676 ± 0.04.
Consider ADFLAKKGASRR [RNH1 C-terminal 12 aa], for which the protein stability index was 0.6944 ± 0.002 in series [1] (setting [4]) and 0.698 ± 0.03 in series [1] (genetic background: wild type).
On the same counts, the results for ADVRYPNIDDYL [HCS1 C-terminal 12 aa] are 0.73454 ± 6.5e-05 and 0.713 ± 0.048.
On the same counts, the results for AEELWADIVGSA [TRP2 C-terminal 12 aa] are 0.75126 ± 0.00045 and 0.684 ± 0.019.
AFEELYMGNCND [SIR1 C-terminal 12 aa]: the protein stability index in series [1] (setting [4]) is 0.7218 ± 0.0021; in series [1] (genetic background: wild type), 0.674 ± 0.035.
On to AFFAVILLYIPG [YKR073C C-terminal 12 aa], for which the protein stability index was 0.287 ± 0.027 in series [1] (setting [4]) and 0.302 ± 0.018 in series [1] (genetic background: wild type).
The corresponding values for AFMMICEKLITL [SEC59 C-terminal 12 aa] are 0.7062 ± 0.0011 and 0.5394 ± 0.0032.
On to AGALAAVAAMLL [TIR4 C-terminal 12 aa], for which the protein stability index in series [1] (setting [4]) is 0.707 ± 0.037; in series [1] (genetic background: wild type), 0.679 ± 0.024.
AGALAVAAAYLL [CWP1 C-terminal 12 aa]: the protein stability index in series [1] (setting [4]) was 0.693 ± 0.013; in series [1] (genetic background: wild type), 0.669 ± 0.0081.
Regarding AGSSKFLKGAKI [MRS1 C-terminal 12 aa], the figures for the protein stability index in series [1] (setting [4]) and in series [1] (genetic background: wild type) were 0.707 ± 0.037 and 0.673 ± 0.0098, respectively.
On the same counts, the results for AGTLDGRLAIWY [BPH1 C-terminal 12 aa] are 0.6943 ± 0.0032 and 0.686 ± 0.014.
Regarding AIAKSIPKRVGL [PUT1 C-terminal 12 aa], the protein stability index is 0.718 ± 0.035 in series [1] (setting [4]) and 0.6998 ± 0.0057 in series [1] (genetic background: wild type).
Turning to AINEGHEGFGLA [TOM1 C-terminal 12 aa], the protein stability index is 0.663 ± 0.025 in series [1] (setting [4]) and 0.687 ± 0.024 in series [1] (genetic background: wild type).
Regarding AKNGDYVKIEQP [YMR315W C-terminal 12 aa], the protein stability index was 0.6792 ± 0.0039 in series [1] (setting [4]) and 0.729 ± 0.019 in series [1] (genetic background: wild type).
The corresponding values for ALAASRAEQPPA [YCR049C C-terminal 12 aa] are 0.691 ± 0.0084 and 0.712 ± 0.012.
On to ALEEALMDRLQF [ATG29 C-terminal 12 aa], for which the protein stability index stood at 0.7094 ± 0.0057 in series [1] (setting [4]) and 0.6947 ± 0.0064 in series [1] (genetic background: wild type).
ALGLAGVAMLFL [SED1 C-terminal 12 aa]: the figures for the protein stability index in series [1] (setting [4]) and in series [1] (genetic background: wild type) were 0.694 ± 0.02 and 0.647 ± 0.0089, respectively.
Consider “ALGMYFLGPALK [YGL063C-A C-terminal 12 aa]”, for which the results for the protein stability index in series [1] (setting [4]) and in series [1] (genetic background: wild type) were 0.697 ± 0.02 and 0.7443 ± 0.0028, respectively.
On the same counts, the results for ALSKDGIYTIAN [PAU1 C-terminal 12 aa] are 0.711 ± 0.0085 and 0.721 ± 0.017.
Turning to AMYDKITESQKK [CHD1 C-terminal 12 aa], the protein stability index is 0.714 ± 0.027 in series [1] (setting [4]) and 0.683 ± 0.0096 in series [1] (genetic background: wild type).
For ANSLDAIFLKSK [YNL150W C-terminal 12 aa], the values for the protein stability index in series [1] (setting [4]) and in series [1] (genetic background: wild type) were 0.6777 ± 0.0042 and 0.669 ± 0.021, respectively.
Take APTPEACESCSG [RNR3 C-terminal 12 aa]: the protein stability index in series [1] (setting [4]) was 0.696 ± 0.01; in series [1] (genetic background: wild type), 0.6947 ± 0.003.
On the same counts, the results for AREQLYEKLEQA [MIC27 C-terminal 12 aa] are 0.697 ± 0.007 and 0.6716 ± 0.0039.
The corresponding values for ARMTGETPVAKH [YHM2 C-terminal 12 aa] are 0.688 ± 0.033 and 0.677 ± 0.016.
On the same counts, the results for ATEITPLLNIAE [VLD1 C-terminal 12 aa] are 0.674 ± 0.018 and 0.773 ± 0.033.
In the case of “ATSLSPNKASAS [YJL026C-A C-terminal 12 aa]”, the values for the protein stability index in series [1] (setting [4]) and in series [1] (genetic background: wild type) were 0.685 ± 0.015 and 0.6601 ± 0.0011, respectively.
Regarding ATVSKIIKLDRK [MYO4 C-terminal 12 aa], the protein stability index in series [1] (setting [4]) stood at 0.711 ± 0.0089; in series [1] (genetic background: wild type), 0.691 ± 0.025.
On the same counts, the results for AVHSFNTPAVQS [COX1 C-terminal 12 aa] are 0.6863 ± 0.0034 and 0.676 ± 0.019.
VVWIQRTVLSLI: the protein stability index stood at 0.27 ± 0.049 in series [2]; 0.565 ± 0.038 in series [3] (setting [5]); 0.603 ± 0.015 in series [3] (setting [6]); 0.505 ± 0.03 in series [3] (setting [7]); 0.6 ± 0.011 in series [3] (setting [8]); 0.151 ± 0.0065 in series [3] (setting [9]). In addition, the protein stability index came to 0.184 ± 0.027 in series [3] (setting [10]) and 0.327 ± 0.0052 in series [3] (setting [11]).
VWFFGVVLGGLW: the protein stability index in series [2] came out at 0.4443 ± 0.0021; in series [3] (setting [5]), 0.527 ± 0.071; in series [3] (setting [6]) it was 0.554 ± 0.0091; in series [3] (setting [7]), 0.423 ± 0.031; in series [3] (setting [8]) it was 0.584 ± 0.014; in series [3] (setting [9]), 0.4157 ± 0.00077. Besides, the results for the protein stability index in series [3] (setting [10]) and in series [3] (setting [11]) were 0.421 ± 0.018 and 0.561 ± 0.03, respectively.
For VWRLCFPFALVR, the protein stability index worked out at 0.194 ± 0.02 in series [2]; 0.0577 ± 0.022 in series [3] (setting [5]); 0.0537 ± 0.012 in series [3] (setting [6]); 0.155 ± 0.025 in series [3] (setting [7]); 0.18 ± 0.023 in series [3] (setting [8]); 0.225 ± 0.0026 in series [3] (setting [9]). Also, the protein stability index in series [3] (setting [10]) stood at 0.132 ± 0.025; in series [3] (setting [11]) it was 0.1406 ± 0.00093.
